Source: patent US20050260595A1

What was measured:
[1] = molecular target: human adenosine A2a receptor protein (human) (UniProt P29274); assay: cell-based or functional assay
[2] = molecular target: human dopamine D1 receptor protein (human) (UniProt P21728); assay: cell-based or functional assay
Sequence of human dopamine D1 receptor protein (human) (P21728 whole entry): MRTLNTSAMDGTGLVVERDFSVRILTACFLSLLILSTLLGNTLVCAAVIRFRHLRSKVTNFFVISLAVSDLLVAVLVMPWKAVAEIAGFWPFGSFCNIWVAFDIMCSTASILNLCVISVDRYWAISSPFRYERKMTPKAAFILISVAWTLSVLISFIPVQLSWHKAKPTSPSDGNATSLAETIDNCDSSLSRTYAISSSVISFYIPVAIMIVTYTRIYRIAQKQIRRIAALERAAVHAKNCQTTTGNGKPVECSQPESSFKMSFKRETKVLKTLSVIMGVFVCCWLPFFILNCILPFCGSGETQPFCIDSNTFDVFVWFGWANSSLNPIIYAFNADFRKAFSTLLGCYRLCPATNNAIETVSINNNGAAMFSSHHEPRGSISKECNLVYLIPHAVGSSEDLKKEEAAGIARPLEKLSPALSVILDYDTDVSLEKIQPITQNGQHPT

Sequence of human adenosine A2a receptor protein (human) (P29274 whole entry): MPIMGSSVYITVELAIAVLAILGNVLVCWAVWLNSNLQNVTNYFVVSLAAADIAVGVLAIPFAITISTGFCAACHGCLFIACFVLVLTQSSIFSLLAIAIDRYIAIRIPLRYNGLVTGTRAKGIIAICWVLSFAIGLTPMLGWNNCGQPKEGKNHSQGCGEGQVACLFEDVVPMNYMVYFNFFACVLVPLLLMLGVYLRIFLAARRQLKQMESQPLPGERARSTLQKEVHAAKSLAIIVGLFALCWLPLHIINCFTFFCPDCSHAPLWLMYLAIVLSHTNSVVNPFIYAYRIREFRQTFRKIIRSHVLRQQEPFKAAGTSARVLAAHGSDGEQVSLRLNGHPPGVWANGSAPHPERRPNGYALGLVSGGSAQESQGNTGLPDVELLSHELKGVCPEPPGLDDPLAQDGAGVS

With human Gm1 protein the cAMP level (HitHunter ECF cyclic AMP chemiluminescent assay; CHO cells co-expressing Gm1 and adenosine A2a receptor, 10 µM adenosine; cells expressing only the A2a receptor = 100%, no contact = 0%) [1] was 134% and the cAMP level (HitHunter ECF cyclic AMP chemiluminescent assay; CHO cells co-expressing Gm1 and dopamine D1 receptor, 10 µM dopamine; cells expressing only the D1 receptor = 100%, no contact = 0%) [2] was 127%.
